From paper PMC8086355, “The unusual structure of the PiggyMac cysteine-rich domain reveals zinc finger diversity in PiggyBac-related transposases”

Target: T1, MBP-PgmD401A (Paramecium tetraurelia, UniProt A0DFJ7 1-1065, D401A)
T1 sequence: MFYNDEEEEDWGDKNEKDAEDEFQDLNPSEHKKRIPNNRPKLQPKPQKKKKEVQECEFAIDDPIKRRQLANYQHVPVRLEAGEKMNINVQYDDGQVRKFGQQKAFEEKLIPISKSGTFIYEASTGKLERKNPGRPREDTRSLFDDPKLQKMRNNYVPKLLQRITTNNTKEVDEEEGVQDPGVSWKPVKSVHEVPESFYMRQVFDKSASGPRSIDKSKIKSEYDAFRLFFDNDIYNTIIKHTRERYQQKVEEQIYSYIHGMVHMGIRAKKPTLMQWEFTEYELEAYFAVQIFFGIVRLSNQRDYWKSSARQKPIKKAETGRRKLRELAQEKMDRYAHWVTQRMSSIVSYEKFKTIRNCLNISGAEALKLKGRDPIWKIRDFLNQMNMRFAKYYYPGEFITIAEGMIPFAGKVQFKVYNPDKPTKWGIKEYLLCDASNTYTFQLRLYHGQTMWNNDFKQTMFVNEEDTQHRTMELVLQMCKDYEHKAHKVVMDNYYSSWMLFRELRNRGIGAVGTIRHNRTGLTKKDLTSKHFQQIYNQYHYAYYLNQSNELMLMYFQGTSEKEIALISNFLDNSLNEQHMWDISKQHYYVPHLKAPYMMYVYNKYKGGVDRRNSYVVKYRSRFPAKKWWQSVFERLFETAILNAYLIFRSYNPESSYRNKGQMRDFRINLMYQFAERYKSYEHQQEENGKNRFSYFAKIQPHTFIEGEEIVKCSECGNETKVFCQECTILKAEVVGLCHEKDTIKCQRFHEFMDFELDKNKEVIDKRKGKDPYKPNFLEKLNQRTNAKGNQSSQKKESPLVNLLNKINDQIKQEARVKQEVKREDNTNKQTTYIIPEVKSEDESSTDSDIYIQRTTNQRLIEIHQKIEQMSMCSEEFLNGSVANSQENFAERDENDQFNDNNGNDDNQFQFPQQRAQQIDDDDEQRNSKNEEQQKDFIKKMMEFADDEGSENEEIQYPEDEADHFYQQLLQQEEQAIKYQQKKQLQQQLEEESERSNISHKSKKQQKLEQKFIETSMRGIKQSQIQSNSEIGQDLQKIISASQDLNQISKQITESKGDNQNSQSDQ
Test: DRaCALA; 400 nM protein; DRaCALA: 25 mM HEPES pH 7.5, 0.1 mg/ml BSA, 0.5 mM DTT, 100 mM NaCl, 25 nM DNA, no competitor, temperature not stated; EMSA: as in earlier paper, 5% acrylamide
Details: protein: recombinant; tags: N-terminal MBP; label: 32P at 5' end of top strand

B1: IES 51A1835 80-bp substrate (dsDNA)
DNA 1: ACTACTACATAATGCTAAACTCATTTATAGATGGATTGTTTTCCAAGTATCTATATCATCATGTGTTGCTAATAACCCTG
DNA 2: ATCGCAGGGTTATTAGCAACACATGATGATATAGATACTTGGAAAACAATCCATCTATAAATGAGTTTAGCATTATGTAGT
Does B1 bind?
Result: binds
